Source: patent CN114106174A (SUZHOU SCENE MEDICAL SCIENCE AND TECH LIMITED COMPANY, dated 2022)
Changes are numbered by the printed parent chain.

T1: OX40 on OX40-overexpressing cells (OX40过表达细胞表面OX40) (UniProt P43489 29-277, limits assumed)
T1 construct: whole, on cells; The cell line and the construct of the overexpressing cells are not described; also called CD134; TNFRSF4
T1 sequence (looked up): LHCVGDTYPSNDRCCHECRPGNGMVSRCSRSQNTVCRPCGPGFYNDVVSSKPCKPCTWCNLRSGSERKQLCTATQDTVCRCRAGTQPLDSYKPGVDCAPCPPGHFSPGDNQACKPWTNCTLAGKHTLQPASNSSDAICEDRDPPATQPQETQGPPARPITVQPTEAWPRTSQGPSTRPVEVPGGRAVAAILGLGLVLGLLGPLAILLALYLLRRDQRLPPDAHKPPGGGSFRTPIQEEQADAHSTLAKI

B1: 35B8-6 (antibody, V domains shown)
VH: QITLKESGPTLVKPTQTLTLTCTFSGFSLSTSAVNVGWIRQPHGKALEWLALIFWNDDKRYSPSLKNRLTITKDTSKDQVVLTMSNMDPVDTATYYCAQYNWNSSFDYWGQGTLVTVSS
VL: DIQMTQSPSSLSASLGDRVTITCQASQDINTYLNWYQQKPGKAPKVLIYDASNLETGVPSRFSGSGSGTDFTFTISSLQPEDIATFYCQQYDNLITFGGGTKVEIKR
B2: 24B9-10 (antibody, V domains shown)
VH: QVQLQESGPGLVKPSGTLSLTCAVSGGSISSSNWWTWVRQPPGKGLEWIGEIYHSGSTNYNPSLKSRVTISVDKSKNQFSLKLSSVTAADTAVYYCARTGPIVTTEYWGQGTLVTVSS
VL: EIVLTQSPGTLSLSPGERATLSCRASQSVSSGYLAWYQQKPGQAPRLLIYGASIRATGIPDRFSGSGSGTDFTLTISRLEPEDFALYYCQQYGSSPLTFGGGTKVEIKR
B3: 16E4-10-5 (antibody, V domains shown)
VH: QVQLQESGPGLVKPSGTLSLTCDVSGGSISSSNWWSWVRQPPGKGLEWIGEIYHSGSTNYNPSLKSRVTISVDKSKNQVSLKLNSVTAADTAVYYCARGDILLWFGGQGTLVTVSS
VL: B2 VL with G32R, I54N, I59M, L86V, L97I, G101Q, K104R, V105L
B4: 23C4-1-5 (antibody, V domains shown)
VH: B3 VH with D23A, N59T, N77S, V79I, N84T, I101V, Q108R
VL: B2 VL with T20S, G32N, A44T, T75I, L86V, G93S, L97I, G101Q, K104R, V105L
B5: 14D3-7-3 (antibody, V domains shown)
VH: EVQLVESGGGLVKPGGSLRLSCAASGFTFSNAWMSWVRQAPGKGLEWVGRIKRKTDGGTTDYATPVKGRFTISRDASKNTLYLQMNSLKTEDTAVYYCTSAARRGYFDIWGRGTLVTVSS
VL: B2 VL with G32R, I54N, I59M, L86M, L97I, G101Q, K104R, V105L
B6: 21F3-11 (antibody, V domains shown)
VH: QVQLQESGPGLVKPSGTLSLTCAVSGGSISSSNWWSWVRQPPGKGLEWIGEIYHGGSTNYNPSLKSRITISVDKSKNQFSLKLSSVTAADTAMYYCATLPGYSSGWFDSWGQGTLVTVSS
VL: B2 VL with T5M, G32S, R46S, I54N, T57S, S77T, L86V, K104R
B7: 24A12-12 (antibody, V domains shown)
VH: B2 VH with S15A, T36N, K74T, S84T, I102T, E106D
VL: B2 VL with G32S, I54Y, I59M, D61E, L86I, S94R
B8: 18F11-4 (antibody, V domains shown)
VH: QVQLQESGPGLVKPSGTLSLTCAVSGGSISSYNWWSWVRQPPGKGLEWIGEIYHSGSTNYNPSLKSRVTISVDKSKNQFSLKLSSVTAADTAVYYCARDEDYYGSGNYYHWGQGTLVTVSS
VL: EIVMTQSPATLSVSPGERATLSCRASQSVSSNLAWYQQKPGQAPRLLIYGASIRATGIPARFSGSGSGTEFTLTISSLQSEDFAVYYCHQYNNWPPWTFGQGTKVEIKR
B9: 21F9-12 (antibody, V domains shown)
VH: B8 VH with S57N, V93M, E100Q, Y108F, H110Y
VL: not shown
B10: 18F5-2 (antibody, V domains shown)
VH: B3 VH with L4M, T21I, D23A, N33K, V72I, V79F, K82R, N84T, I101V
VL: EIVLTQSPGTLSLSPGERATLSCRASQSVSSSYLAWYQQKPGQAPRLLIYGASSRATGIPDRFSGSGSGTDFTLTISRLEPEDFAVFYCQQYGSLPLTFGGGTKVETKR
B11: 26C3-4 (antibody, V domains shown)
VH: B3 VH
VL: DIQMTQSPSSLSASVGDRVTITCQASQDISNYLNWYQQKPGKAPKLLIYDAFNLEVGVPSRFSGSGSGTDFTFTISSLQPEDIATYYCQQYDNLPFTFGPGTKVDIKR
B12: 48D10-5 (antibody, V domains shown)
VH: QVQLVQSGAEVKKPGASMKVSCKASGYTFANFGINWVRQAPGQGLEWMGWISAYNGYTNYAQQFQGRITMTTDTSTSTAYMELRSLRSDDTAIYYCVIWFGELLSFDYWGQGTLVTVSS
VL: DIQMTQFPSSLSASVGDRVTITCRASQDISNYLAWFQQKPGKAPKSLIYAASSLQSGVPSKFSGNGFGTDFTFPLSRMQPEDFASSYCQQYNNYTFTFGRGTKVEIKR
B13: 38D9-12 (antibody, V domains shown)
VH: QVQLQESGPGLVKPSGTLSLTCAVSGDSISSTNWWSWVRQPPGKGLEWIGEINHNGSTYYNPSLKSRVTISVDKSKNQFSLKLRSVTAADTAVYYCAREDYYYMDVWGKGTTVTVSS
VL: DIQMTQSPSSLSASVGDRVTITCRTSQGIWNDLGWYQQKPGKAPKRLIYAASSLQSGVPSRFSGSESGTEFTLTISSLQPEDFATYYCLQYNNYPLTFGGGTKVEIKR
B14: 28E3-4 (antibody, V domains shown)
VH: QVQLQESGPGLVKPSGTLSLTCAVSGGSISRSNWWTWVRQSPGKGLEWIGEIYHSGNTNYNPSLKSRVTISLDKSKNQFSLKLSSVTAADTAVYYCASSGSLYMDVWGKGTTVTVSS
VL: DIQMTQSPSSLSASVGDRVTISCRASQSTSSYLNWYQQKPGKAPRLLIYGASSLQSGVPSRFSGSGSGTDFILTISSLQPEDFATYYCQQSYSIPITFGQGTRLEIKR
B15: 29B8-3 (antibody, V domains shown)
VH: QVQLQESGPGLVKPSGTLSLTCAVSGVSISSSNWWSWVRQPPGKGLEWIGEIYHSGNTNYNPSLKSRVTISVDKSKNQFSLKLSSVTAADTAVYYCAETSTITTNYWGQGTLVTVSS
VL: B14 VL with S22T, S28T, T29I, R45K, G50A, G66E, I72T, S91T
B16: 4D9-12 (antibody, V domains shown)
VH: B14 VH with R31S, T36S, S41P, N59I
VL: B14 VL with S12L, A13S, Q27H, S28G, T29S, S31T, S67F, L78M
B17: 23D1-8 (antibody, V domains shown)
VH: QVQLVQSGAEVKKPGASVKVSCKASGYTFTGYYIHWVRQAPGQGLEWMGRINPNSGGTDFAQKFQARVTMTRDTAINIVYMELSRLRSDDTAVYYCARVVVASYYFDNWGQGTLVTVSS
VL: not shown
B18: 29A9-5 (antibody, V domains shown)
VH: QVQLQESGPGLVKPSGTLSLTCAVFGDSISSSYWWSWVRQPPGKGLEWIGEIYHSGSTHYNPSLKSRVTISVDKSKNHLSLKLISVTDADTAVYYCAGEDTGWPFDFWGQGTLVTVSS
VL: not shown
B19: 17D5-11 (antibody, V domains shown)
VH: QVQLQESGPGLVKPSETLSLTCAVSGGSINSTNWWSWVRQPPGKGLEWIGEIYHSGSTNYNPSLKSRVTISVDKSKNQFSLKLSSVTAADTAVYYCARGGAVALDYWGQGTLVTVSS
VL: EIVLTQSPGPLSLSPGDRATLSCRASQTVSSSYLAWYLQKPGQAPRLLIYGASIRATGIPDRFSGSGSGTDFTLTISRLEPEDFAVYYCQQYGNSPITFGQGTRLEIKR

Target: T1, OX40 on OX40-overexpressing cells …
Assay: flow cytometry, hybridoma supernatant on OX40-overexpressing cells, goat anti-mouse IgG-PE

| Y586通道PE荧光值 | Binder |
| --- | --- |
| 243000 | B1 |
| 313000 | B2 |
| 377000 | B3 |
| 63900 | B4 |
| 274000 | B5 |
| 171000 | B6 |
| 343000 | B7 |
| 402000 | B8 |
| 424000 | B9 |
| 432000 | B10 |
| 416000 | B11 |
| 358000 | B12 |
| 243000 | B13 |
| 195000 | B14 |
| 388000 | B15 |
| 187000 | B16 |
| 166000 | B17 |
| 221000 | B18 |
| 475000 | B19 |
